Experimental data: patent US20080044815

Columns and labels:
[1] = tested on: FLAG-tagged JNK1(Arg-309-Trp) from the pCMV-FLAG vector, expressed in COS cells
[2] = tested on: FLAG-tagged JNK1(Leu-131-Arg) from the pCMV-FLAG vector, expressed in COS cells
[3] = tested on: FLAG-tagged JNK1(Tyr-320-His) from the pCMV-FLAG vector, expressed in COS cells
[4] = tested on: FLAG-tagged wild-type JNK1 from pCMV-FLAG-JNK1, expressed in COS cells
FLAG-tagged wild-type JNK1 from pCMV-FLAG-JNK1, expressed in COS cells, sequence (chain, as listed by the source): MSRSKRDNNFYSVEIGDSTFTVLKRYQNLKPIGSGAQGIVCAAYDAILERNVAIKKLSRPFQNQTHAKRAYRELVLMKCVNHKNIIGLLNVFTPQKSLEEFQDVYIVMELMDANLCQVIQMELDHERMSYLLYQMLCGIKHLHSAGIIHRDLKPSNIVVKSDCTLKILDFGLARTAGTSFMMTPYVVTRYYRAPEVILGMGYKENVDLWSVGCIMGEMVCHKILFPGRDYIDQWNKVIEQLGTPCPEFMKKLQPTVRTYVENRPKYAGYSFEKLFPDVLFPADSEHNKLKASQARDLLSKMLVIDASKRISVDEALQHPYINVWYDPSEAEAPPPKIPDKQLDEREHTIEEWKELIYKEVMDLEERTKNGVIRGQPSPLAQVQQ

FLAG-tagged JNK1(Leu-131-Arg) from the pCMV-FLAG vector, expressed in COS cells, sequence (chain, as listed by the source L131R): as the sequence (chain, as listed by the source) above, with L131R counted along it
FLAG-tagged JNK1(Tyr-320-His) from the pCMV-FLAG vector, expressed in COS cells, sequence (chain, as listed by the source Y320H): as the sequence (chain, as listed by the source) above, with Y320H counted along it
FLAG-tagged JNK1(Arg-309-Trp) from the pCMV-FLAG vector, expressed in COS cells, sequence (chain, as listed by the source R309W): as the sequence (chain, as listed by the source) above, with R309W counted along it

## GST-MKK4(ED), constitutively active form of MKK4
[1]
  phosphorylation of immunoprecipitated FLAG-JNK by GST-MKK4(ED), in vitro kinase assay with [32P]ATP, autoradiography: the negligible amount of radioactive phosphate incorporated into any of the three JNK mutants was not increased by the presence of active MKK4
[2]
  phosphorylation of immunoprecipitated FLAG-JNK by GST-MKK4(ED), in vitro kinase assay with [32P]ATP, autoradiography: the negligible amount of radioactive phosphate incorporated into any of the three JNK mutants was not increased by the presence of active MKK4
[3]
  phosphorylation of immunoprecipitated FLAG-JNK by GST-MKK4(ED), in vitro kinase assay with [32P]ATP, autoradiography: the negligible amount of radioactive phosphate incorporated into any of the three JNK mutants was not increased by the presence of active MKK4
[4]
  phosphorylation of immunoprecipitated FLAG-JNK by GST-MKK4(ED), in vitro kinase assay with [32P]ATP, autoradiography: The presence of active MKK4 increased the phosphorylation of wildtype JNK relative to the autophosphorylation that occurred in the absence of any upstream activator protein
